Experiments:
murine IL-17E receptor = molecular target: T1, murine IL-17E receptor (Mus musculus, UniProt Q9JIP3); experiment: FACS binding to IL-17E receptor on pre-B cell line 70Z/3; conditions: 1 μg/10^6 cells, 30 minutes at 4° C.
T1 construct: murine IL-17E receptor present on the pre-B cell line 70Z/3; endogenous in cells; host or cells: murine pre-B cell line 70Z/3
T1 sequence (Q9JIP3 18-499): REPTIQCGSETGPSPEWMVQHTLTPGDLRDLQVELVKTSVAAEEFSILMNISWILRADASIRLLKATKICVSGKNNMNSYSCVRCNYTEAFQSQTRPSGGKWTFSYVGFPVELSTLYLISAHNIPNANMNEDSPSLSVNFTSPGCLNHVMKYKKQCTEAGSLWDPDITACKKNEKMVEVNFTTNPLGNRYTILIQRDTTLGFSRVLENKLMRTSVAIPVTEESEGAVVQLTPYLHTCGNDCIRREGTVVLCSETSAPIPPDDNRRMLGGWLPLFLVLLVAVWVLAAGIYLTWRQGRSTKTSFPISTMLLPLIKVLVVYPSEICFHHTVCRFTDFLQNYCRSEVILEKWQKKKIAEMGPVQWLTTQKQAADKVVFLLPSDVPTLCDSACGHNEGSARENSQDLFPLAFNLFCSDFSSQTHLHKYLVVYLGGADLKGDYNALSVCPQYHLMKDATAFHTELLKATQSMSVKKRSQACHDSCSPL
Protocol: The ability of human and murine interleukin 17E to bind to the IL-17E receptor was examined using the murine pre-B cell line 70Z/3 (Paige, C. J., et al. (1981) Nature 292:631-3).
1×10^6 70Z/3 cells/sample were incubated with either murine or human IL-17E (1 μg/10^6 cells) for 30 minutes at 4° C. After washing twice, cells that had been incubated with murine IL-17E were incubated with biotin-conjugated goat anti-mouse IL17E and phycoerythrin (PE)-Cy5.5-conjugated streptavidin. Cells that had been incubated with human IL-17E were incubated with biotin-conjugated goat anti-human IL17E-biotin and phycoerythrin (PE)-Cy5.5-conjugated streptavidin. As negative controls, cells were stained with antibodies as described without preincubation with human or murine IL-17E. Samples were then fixed with 0.5% paraformaldehyde prior to FACS analysis.

[1] = tested on: B cell linker protein BLNK; experiment: BLNK phosphorylation in B cell lymphoma cell line WEHI-231 (Western blot); assay type: cell-based; conditions: 0.21 μg per 1.5×10^6 WEHI-231 cells, 0, 2, 5 minutes
Source text: (§1) The effect of IL-17E on activation of signaling pathways in B cells was examined using the B cell lymphoma cell line WEHI-231 (Lanier L. L., et al. (1981) J. Immunol. 126:626-31). Specifically, the activation status of the protein tyrosine kinase Lyn and the B cell linker protein BLNK (Tsubata, T., et al., (2001) Int Rev Immunol 20:675-8) were examined. An increased level of the phosphorylated forms of these proteins is indicative of activation.
(§2) A total of 1.5×10^6 cells per sample were stimulated in vitro with 0.21 μg of either human IL-17E or murine IL17E at 37° C. Cells were lysed at time points t=0, 2, and 5 minutes in lysis buffer for 30 minutes on ice, followed by centrifugation for 10 minutes. Samples containing approximately 25 μg of protein were separated by SDS-PAGE, followed by transfer to membranes for Western blotting.
For detection of phosphorylated BLNK, Western blots were incubated with rabbit anti-phospho-BLNK antibodies, followed by horseradish peroxidase (HRP)-conjugated anti-rabbit antibodies.
(§3) To assess equivalence in protein loading among lanes in both experiments, blots were stripped of antibodies and incubated with mouse anti-GAPDH antibodies and HRP-conjugated anti-mouse antibodies, followed by chemiluminescence-based detection.

[2] = tested on: protein tyrosine kinase Lyn; experiment: Lyn phosphorylation in B cell lymphoma cell line WEHI-231 (Western blot); assay type: cell-based; conditions: 0.21 μg per 1.5×10^6 WEHI-231 cells, 0, 2, 5 minutes
Source text: as §1, §2
For detection of Lyn, Western blots were incubated with rabbit anti-Lyn antibodies, followed by horseradish peroxidase (HRP)-conjugated anti-rabbit antibodies. All blots were exposed to autoradiography film and developed to detect proteins of interest by chemiluminescence.
as §3

[3] = tested on: IkappaB alpha (NF-kappaB pathway); experiment: NF-kappaB pathway activation: IkappaB alpha phosphorylation in WEHI-231 cells; assay type: cell-based; conditions: 0.7 μg per 5×10^6 WEHI-231 cells, 0, 2, 5 minutes
Protocol: The ability of both human and murine interleukin 17E to activate proteins in the Nuclear Factor-kappa B (NF-kappaB) pathway was examined using the B cell lymphoma cell line WEHI-231. […] Activation of the NK-kappaB pathway was assessed by increased phosphorylation of the protein IkappaB alpha. […] The activation of NF-kappa B is associated with the phosphorylation of IkappaB alpha in response to certain stimuli.
as §2, with “5×10^6” for “of 1.5×10^6”, “stimulated” for “stimulated in vitro”, “0.7” for “0.21”, “IL-17E (hIL-17E)” for “IL-17E”, “IL-17E (mIL-17E)” for “IL17E”, “40” for “25”
Blots were incubated with rabbit anti-phospho-IkappaB-alpha antibodies, followed by horesradish peroxidase (HRP)-conjugated anti-rabbit antibodies. Blots were exposed to autoradiography film and developed to detect phosphorylated IkB (at approximately 41 kD) by chemiluminescence.
as §3

B1: murine IL-17E: Murine IL-17E from R&D Systems; predominant form starting at Val 17 of GenBank NP 542767 (protein)
chain: VSLRIQEGCSHLPSCCPSKEQEPPEEWLKWSSASVSPPEPLSHTHHAESCRASKDGPLNSRAISPWSYELDRDLNRVPQDLYHARCLCPHCVSLQTGSHMDPLGNSVPLYHNQTVFYRRPCHGEEGTHRRYCLERRLYRVSLACVCVRPRVMA
- binding to murine IL-17E receptor on 70Z/3 cells (FACS) (murine IL-17E receptor): bound
- levels of phosphorylated BLNK protein [1]: increased
- levels of phosphorylated Lyn protein [2]: increased
- levels of phosphorylated IkappaB alpha (p-IkB-α) [3]: increased

B2: human IL-17E: Recombinant human IL-17E from PeproTech; two 145 amino acid chains, predominant form starting at Tyr 33 of GenBank AAG40848 (protein, listed as Homo sapiens)
chain: YSHWPSCCPSKGQDTSEELLRWSTVPVPPLEPARPNRHPESCRASEDGPLNSRAISPWRYELDRDLNRLPQDLYHARCLCPHCVSLQTGSHMDPRGNSELLYHNQTVFYRRPCHGEKGTHKGYCLERRLYRVSLACVCVRPRVMG
- binding to murine IL-17E receptor on 70Z/3 cells (FACS) (murine IL-17E receptor): bound
- levels of phosphorylated BLNK protein [1]: increased
- levels of phosphorylated Lyn protein [2]: increased
- levels of phosphorylated IkappaB alpha (p-IkB-α) [3]: increased
